In assay [1] the target is T1, full length human SIRPα on cell membranes (HEK293-SIRPα cells; 293F-SIRPα cells) (human, UniProt P78324 31-504).
T1 construct: whole, on cells; also called cell surface human SIRPα; cell surface SIRPα
The assay can be described thus: cell based binding FACS on HEK293-SIRPα cells, MFI; curve not visible in the scan.

Assay [2] has as its target T2, full length human SIRPβ on cell membranes (HEK293-SIRPβ cells; 293F cells expressing human SIRPβ) (human, UniProt O00241 30-398).
T2 construct: whole, on cells; also called cell surface human SIRPβ
The assay can be described thus: cell based binding FACS on HEK293-SIRPβ cells, MFI; curve not visible in the scan.

The target in assay [3] is T3, cynomolgus SIRPα-his protein (cynomolgus).
T3 construct: also called Cyno SIRPα-his; monkey SIRPα
T3 chain: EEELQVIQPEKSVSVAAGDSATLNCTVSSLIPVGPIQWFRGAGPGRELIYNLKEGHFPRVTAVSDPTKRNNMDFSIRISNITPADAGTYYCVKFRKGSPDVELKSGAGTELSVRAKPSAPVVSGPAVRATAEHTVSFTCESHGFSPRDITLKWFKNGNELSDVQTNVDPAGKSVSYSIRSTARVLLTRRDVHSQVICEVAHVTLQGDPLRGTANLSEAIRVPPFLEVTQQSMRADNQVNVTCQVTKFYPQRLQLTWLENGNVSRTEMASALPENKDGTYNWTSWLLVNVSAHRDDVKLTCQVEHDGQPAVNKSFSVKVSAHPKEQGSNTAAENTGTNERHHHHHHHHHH
The assay can be described thus: indirect ELISA on coated cynomolgus SIRPα-his, OD(450-630); curve not visible in the scan.

Assay [4] concerns the target human SIRPα-isoform 2-his protein (human). The assay can be described thus: indirect ELISA on coated human SIRPα-isoform 2-his, OD(450-630); curve not visible in the scan.
In assay [5] the target is T4, full length human SIRPγ endogenously expressed on Jurkat cells (human, UniProt Q9P1W8 29-387).
T4 construct: whole, on cells; also called human SIRPγ expressed on Jurkat cells
As to the kind of experiment: cell based binding FACS on Jurkat cells (endogenous human SIRPγ), MFI; curve not separable in the scan; paragraph 186 says no binding.

The target in assay [6] is T1, full length human SIRPα on cell …. As to the kind of experiment: cell based blocking FACS on 293F-SIRPα cells; blocked ligand: biotin-labeled human CD47-Fc, MFI; curve only in faint traces.
The target of assay [7] is T5, human SIRPα-his protein (human, UniProt P78324 31-370). As to the kind of experiment: competitive ELISA on coated human SIRPα-his; blocked ligand: biotin-labeled human CD47-his, OD(450-630); curve not visible in the scan. (ELISA stands for enzyme-linked immunosorbent assay.)
The target of assay [8] is T6, recombinant human SIRPα-Fc protein (human, biotin-labeled (sites not given)).
T6 construct: also called biotin-labeled human SIRPα-Fc protein
The assay can be described thus: capture ELISA, antibody captured on anti-mouse IgG F(ab')2, biotin-labeled human SIRPα-Fc in solution, OD(450-630); curve not visible in the scan.

Assay [9] has as its target T7, mouse SIRPα-his (mouse, UniProt P97797 35-363, limits assumed).
T7 chain: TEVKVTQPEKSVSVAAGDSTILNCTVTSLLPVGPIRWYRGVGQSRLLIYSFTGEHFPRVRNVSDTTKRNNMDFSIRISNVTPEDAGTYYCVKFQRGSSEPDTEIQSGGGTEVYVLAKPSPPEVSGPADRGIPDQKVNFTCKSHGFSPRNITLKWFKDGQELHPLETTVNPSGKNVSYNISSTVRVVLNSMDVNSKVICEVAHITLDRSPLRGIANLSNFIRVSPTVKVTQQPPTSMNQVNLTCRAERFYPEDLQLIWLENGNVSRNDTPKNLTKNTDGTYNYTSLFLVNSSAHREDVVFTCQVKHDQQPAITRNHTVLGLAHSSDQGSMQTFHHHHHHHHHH
The assay can be described thus: indirect ELISA on coated mouse SIRPα-his, OD(450-630).

The target in assay [10] is human SIRPα-V8-his protein (human, UniProt P78324 31-370, limits assumed). The assay can be described thus: indirect ELISA on coated human SIRPα-V8-his, OD(450-630).
Assay [11] concerns the target human SIRPα-isoform 2-his protein (human). As to the kind of experiment: indirect ELISA on coated human SIRPα-isoform 2-his, OD(450-630).
Assay [12] deals with T1, full length human SIRPα on cell …. As to the kind of experiment: cell based binding FACS on 293F cells expressing human SIRPα, MFI.
In assay [13] the target is T2, full length human SIRPβ on cell …. The assay can be described thus: cell based binding FACS on 293F cells expressing human SIRPβ, MFI.
For assay [14], the target named is human SIRPγ-his protein (human, UniProt Q9P1W8 29-360, limits assumed). As to the kind of experiment: SPR (Biacore T200), antibody captured on Protein A chip, human SIRPγ-his flowed. (SPR reads the build-up and loss of mass on a sensor chip optically.)
In assay [15] the target is T8, human FcRn protein (Cat #FCM-H5286, Acro biosystems Inc.) (human, UniProt P55899 24-297; P61769 21-119). The assay can be described thus: SPR (Biacore); human FcRn covalently linked to CM5 chip, antibody flowed from 62.5 µg/ml; pH 6.0.
Assay [16] concerns the target T8, human FcRn protein (Cat #FCM-H5286, …). The assay can be described thus: SPR (Biacore); human FcRn covalently linked to CM5 chip, antibody flowed from 62.5 µg/ml; pH 7.4.
The target of assay [17] is T1, full length human SIRPα on cell …. The assay can be described thus: cell based blocking FACS on 293F-SIRPα cells; blocked ligand: human CD47 protein (CD47-Fc), MFI.
The target of assay [18] is T5, human SIRPα-his protein. The assay can be described thus: SPR (Biacore T200); antibody captured on Protein A chip, human SIRPα-his flowed from 200 nM; 1:1 Langmuir fit.
Assay [19] concerns the target human SIRPβ-his protein (human, UniProt O00241 30-371). The assay can be described thus: SPR (Biacore T200); antibody captured on Protein A chip, human SIRPβ-his flowed from 200 nM; 1:1 Langmuir fit.
Assay [20] concerns the target T3, cynomolgus SIRPα-his protein. The assay can be described thus: indirect ELISA on coated cynomolgus SIRPα-his, OD(450-630); curve flat at the baseline (see non_binding).
Assay [21] deals with human SIRPα protein (soluble, used on 293F-CD47 cells) (human, UniProt P78324 31-370, limits assumed). As to the kind of experiment: cell based blocking FACS on 293F-CD47 cells; soluble human SIRPα protein blocked from binding cell surface human CD47, MFI.
Assay [22] addresses T4, full length human SIRPγ endogenously …. The assay can be described thus: cell based binding FACS on Jurkat cells (endogenous human SIRPγ), MFI; curve flat at MFI about 35 up to about 13 nM, rises to about 115 only at the last point (about 67 nM); paragraph 213 says no binding.
Assay [23] deals with T8, human FcRn protein (Cat #FCM-H5286, …). The assay can be described thus: SPR (Biacore); human FcRn covalently linked to CM5 chip, antibody flowed from 62.5 µg/ml; pH 6.0; pH 6.0.
The target in assay [24] is T4, full length human SIRPγ endogenously …. The assay can be described thus: cell based binding FACS on Jurkat cells (endogenous human SIRPγ), MFI; curve flat at MFI about 35 up to about 13 nM, rises to about 185 only at the last point (about 67 nM); paragraph 213 says no binding.

The values that follow come from patent US20250250355A1 (BIOSION, published 2025).

T1 sequence (P78324 31-504): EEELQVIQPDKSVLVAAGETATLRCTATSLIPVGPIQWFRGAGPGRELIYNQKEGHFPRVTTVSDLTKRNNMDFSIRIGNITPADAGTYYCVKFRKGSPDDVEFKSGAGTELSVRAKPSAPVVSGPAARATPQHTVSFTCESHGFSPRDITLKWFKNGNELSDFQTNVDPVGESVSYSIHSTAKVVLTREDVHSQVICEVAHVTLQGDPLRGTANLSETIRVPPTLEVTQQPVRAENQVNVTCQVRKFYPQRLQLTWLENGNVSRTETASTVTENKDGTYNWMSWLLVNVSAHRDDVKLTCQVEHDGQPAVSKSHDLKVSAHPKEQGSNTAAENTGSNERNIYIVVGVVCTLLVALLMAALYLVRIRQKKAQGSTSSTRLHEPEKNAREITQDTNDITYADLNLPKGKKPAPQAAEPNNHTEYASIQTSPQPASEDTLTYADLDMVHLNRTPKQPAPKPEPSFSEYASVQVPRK
T2 sequence (O00241 30-398): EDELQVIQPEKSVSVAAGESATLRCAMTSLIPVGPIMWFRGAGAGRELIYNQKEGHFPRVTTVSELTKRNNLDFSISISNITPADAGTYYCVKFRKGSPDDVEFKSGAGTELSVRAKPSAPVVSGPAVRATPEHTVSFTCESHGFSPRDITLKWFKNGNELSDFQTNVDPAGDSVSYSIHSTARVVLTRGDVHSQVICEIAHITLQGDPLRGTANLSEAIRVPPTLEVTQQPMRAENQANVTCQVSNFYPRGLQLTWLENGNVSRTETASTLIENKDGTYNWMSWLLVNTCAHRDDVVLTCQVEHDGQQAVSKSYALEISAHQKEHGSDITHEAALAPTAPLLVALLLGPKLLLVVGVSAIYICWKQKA
T4 sequence (Q9P1W8 29-387): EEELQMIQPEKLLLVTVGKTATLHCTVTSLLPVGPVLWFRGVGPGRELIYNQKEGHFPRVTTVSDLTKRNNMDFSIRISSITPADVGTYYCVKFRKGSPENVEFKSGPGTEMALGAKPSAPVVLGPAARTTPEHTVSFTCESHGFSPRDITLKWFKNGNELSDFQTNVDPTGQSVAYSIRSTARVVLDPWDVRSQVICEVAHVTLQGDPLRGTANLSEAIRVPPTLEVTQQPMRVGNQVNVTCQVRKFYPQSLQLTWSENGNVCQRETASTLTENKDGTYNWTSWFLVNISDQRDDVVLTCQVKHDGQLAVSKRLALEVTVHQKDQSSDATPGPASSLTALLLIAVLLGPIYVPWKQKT
Chain of human SIRPβ-his protein (O00241 other isoform, or with tags, fused parts or gaps limits assumed): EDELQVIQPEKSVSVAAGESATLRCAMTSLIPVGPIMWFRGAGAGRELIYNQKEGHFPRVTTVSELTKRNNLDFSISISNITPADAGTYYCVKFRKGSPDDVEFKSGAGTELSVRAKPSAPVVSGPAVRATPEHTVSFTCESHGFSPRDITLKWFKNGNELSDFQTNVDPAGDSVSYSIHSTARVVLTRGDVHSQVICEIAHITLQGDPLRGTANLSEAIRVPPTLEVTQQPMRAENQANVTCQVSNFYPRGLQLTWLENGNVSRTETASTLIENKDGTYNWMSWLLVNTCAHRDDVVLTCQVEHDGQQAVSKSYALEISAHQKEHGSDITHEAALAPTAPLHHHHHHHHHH
Chain of human SIRPα-isoform 2-his protein (human) (chain, as listed by the source limits assumed): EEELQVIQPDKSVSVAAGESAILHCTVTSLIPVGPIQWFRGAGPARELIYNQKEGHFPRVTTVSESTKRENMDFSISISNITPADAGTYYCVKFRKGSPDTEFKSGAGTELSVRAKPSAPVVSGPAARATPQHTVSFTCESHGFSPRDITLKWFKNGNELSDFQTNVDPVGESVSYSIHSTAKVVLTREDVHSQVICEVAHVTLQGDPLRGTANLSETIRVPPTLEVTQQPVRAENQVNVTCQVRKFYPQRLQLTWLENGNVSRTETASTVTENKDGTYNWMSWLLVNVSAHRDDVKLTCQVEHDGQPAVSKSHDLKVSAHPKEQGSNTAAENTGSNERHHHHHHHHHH
T8 sequence (P55899 24-297 limits assumed, chain 1 of 2): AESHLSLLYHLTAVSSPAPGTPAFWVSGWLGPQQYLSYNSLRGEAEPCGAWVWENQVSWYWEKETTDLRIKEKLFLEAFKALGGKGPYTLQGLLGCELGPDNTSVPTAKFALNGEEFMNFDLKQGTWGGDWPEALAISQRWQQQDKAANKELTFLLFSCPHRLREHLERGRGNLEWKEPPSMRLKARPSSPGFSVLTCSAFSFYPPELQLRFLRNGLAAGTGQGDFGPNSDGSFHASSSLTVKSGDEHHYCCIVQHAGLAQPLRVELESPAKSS
T8 sequence (P61769 21-119 limits assumed, chain 2 of 2): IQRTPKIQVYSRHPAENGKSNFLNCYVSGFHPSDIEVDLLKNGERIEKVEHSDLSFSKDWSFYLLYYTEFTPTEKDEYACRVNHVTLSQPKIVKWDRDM
T5 sequence (P78324 other isoform, or with tags, fused parts or gaps limits assumed): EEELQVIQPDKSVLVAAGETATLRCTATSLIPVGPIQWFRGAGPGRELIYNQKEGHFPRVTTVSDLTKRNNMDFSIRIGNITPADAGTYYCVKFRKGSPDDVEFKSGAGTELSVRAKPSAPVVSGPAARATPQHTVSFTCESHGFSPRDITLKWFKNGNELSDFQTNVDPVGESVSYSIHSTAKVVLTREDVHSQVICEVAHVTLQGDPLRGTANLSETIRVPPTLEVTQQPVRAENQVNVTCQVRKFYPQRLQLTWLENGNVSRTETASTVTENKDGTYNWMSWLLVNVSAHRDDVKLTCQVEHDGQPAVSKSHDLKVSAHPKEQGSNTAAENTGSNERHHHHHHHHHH
Chain of human SIRPα protein (soluble, used on 293F-CD47 cells) (P78324 31-370 limits assumed): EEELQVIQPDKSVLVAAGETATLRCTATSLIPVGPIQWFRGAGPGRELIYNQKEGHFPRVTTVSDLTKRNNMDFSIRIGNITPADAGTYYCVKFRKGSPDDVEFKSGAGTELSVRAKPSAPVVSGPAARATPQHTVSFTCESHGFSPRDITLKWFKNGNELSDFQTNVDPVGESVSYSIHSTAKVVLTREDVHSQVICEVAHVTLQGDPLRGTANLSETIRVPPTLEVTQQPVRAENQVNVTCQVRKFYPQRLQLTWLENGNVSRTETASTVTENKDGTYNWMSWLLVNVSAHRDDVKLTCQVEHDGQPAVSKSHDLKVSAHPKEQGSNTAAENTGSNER
Chain of human SIRPα-V8-his protein (P78324 other isoform, or with tags, fused parts or gaps limits assumed): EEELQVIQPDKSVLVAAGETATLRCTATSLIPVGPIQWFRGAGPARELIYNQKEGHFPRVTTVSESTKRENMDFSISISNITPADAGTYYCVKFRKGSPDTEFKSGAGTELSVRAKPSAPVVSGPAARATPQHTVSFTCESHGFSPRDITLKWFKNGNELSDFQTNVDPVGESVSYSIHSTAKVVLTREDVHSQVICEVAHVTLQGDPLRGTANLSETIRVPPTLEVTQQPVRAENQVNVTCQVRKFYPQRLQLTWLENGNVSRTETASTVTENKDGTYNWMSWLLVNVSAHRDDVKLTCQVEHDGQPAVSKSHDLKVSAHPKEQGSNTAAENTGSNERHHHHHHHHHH
Chain of human SIRPγ-his protein (Q9P1W8 29-360 limits assumed): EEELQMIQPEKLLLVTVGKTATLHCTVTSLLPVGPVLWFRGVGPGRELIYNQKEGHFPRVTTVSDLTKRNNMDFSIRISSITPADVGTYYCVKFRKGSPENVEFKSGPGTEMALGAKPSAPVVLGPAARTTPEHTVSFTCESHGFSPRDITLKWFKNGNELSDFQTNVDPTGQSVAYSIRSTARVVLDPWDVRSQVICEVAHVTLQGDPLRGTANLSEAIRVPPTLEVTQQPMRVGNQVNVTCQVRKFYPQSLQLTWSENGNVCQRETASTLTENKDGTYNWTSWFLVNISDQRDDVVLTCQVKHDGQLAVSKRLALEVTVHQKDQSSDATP
T6 sequence (chain, as listed by the source limits assumed): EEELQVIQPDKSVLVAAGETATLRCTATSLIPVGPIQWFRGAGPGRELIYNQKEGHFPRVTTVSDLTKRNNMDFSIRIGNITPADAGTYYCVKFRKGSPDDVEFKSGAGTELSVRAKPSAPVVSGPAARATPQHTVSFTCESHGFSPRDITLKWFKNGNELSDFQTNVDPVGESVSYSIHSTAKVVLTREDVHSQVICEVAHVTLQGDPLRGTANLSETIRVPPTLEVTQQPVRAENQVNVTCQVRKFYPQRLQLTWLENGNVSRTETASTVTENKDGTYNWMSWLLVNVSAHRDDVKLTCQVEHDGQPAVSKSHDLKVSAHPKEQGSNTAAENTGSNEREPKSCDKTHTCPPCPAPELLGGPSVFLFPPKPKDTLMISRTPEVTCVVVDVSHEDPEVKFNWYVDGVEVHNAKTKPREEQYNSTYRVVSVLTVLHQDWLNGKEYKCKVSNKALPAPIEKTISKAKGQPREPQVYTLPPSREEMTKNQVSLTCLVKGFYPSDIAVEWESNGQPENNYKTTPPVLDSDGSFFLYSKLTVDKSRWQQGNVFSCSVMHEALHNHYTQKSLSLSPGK

B1: E1H10B7C7 (antibody, V domains shown)
VH: QVQLVQSGAEVKKPGASVKVSCKASGYTFTSYAMQWVRQAPGQRLEWMGWIIAGNGDTKYSQNFQDRVTLTRDTSANTAYMDLSGLRSEDTAVYYCARGSGFSGYGYFDKWGQGTLVTVSS
VL: DIQMTQSPSSLSASVGDRVTITCRASHSISSYLNWYQQKPGKVPKLLIYASSSLQSGVPSRFSGNGSGTDFTLIISSLQPEDFATYYCQQSHSIPLTFGGGTKVEIK
A word on the EC50: it is the concentration giving half of the maximal effect. As usually defined, the IC50 is the concentration that gives 50% inhibition. The low end stands for inhibition by little substance, the high end for a need for much substance. For B1, the EC50 in assay [1] was 0.842 nM; in [2], 0.689 nM; in [3], 0.131 nM; in assay [4], 0.162 nM; in [5], 0.5 nM; in assay [8] it was 0.103 nM. In addition, the 50% inhibitory concentration (IC50) in assay [6] was found to be 0.853 nM; in [7], 2.68 nM.

B2: E1F1B1C3-CDRV1-IgG1 (YTE) (antibody)
heavy: QVQLVQSGAEVKKPGASVKVSCKASGYTFTSNAMHWVRQVPGQGLEWMGWIKAGNAEIKYSQKFQGRVTITRDTSATTAYMELSSLRSEDTAVYYCARGDYYYYYMDVWGKGTTVTVSSASTKGPSVFPLAPSSKSTSGGTAALGCLVKDYFPEPVTVSWNSGALTSGVHTFPAVLQSSGLYSLSSVVTVPSSSLGTQTYICNVNHKPSNTKVDKKVEPKSCDKTHTCPPCPAPEAQGGPSVFLFPPKPKDTLYITREPEVTCVVVDVSHEDPEVKFNWYVDGVEVHNAKTKPREEQYNSTYRVVSVLTVLHQDWLNGKEYKCQVSNKALPAPIEKTISKAKGQPREPQVYTLPPSRDELTKNQVSLTCLVKGFYPSDIAVEWESNGQPENNYKTTPPVLDSDGSFFLYSKLTVDKSRWQQGNVFSCSVMHEALHNHYTQKSLSLSPG
light: DIQVTQSPSSLSASVGDRVTITCRASQSISDFLNWYQQKPGKAPKLLIHAASSLQAGVPSRFSGSGSGTDFSLTINSLQPEDFATYYCQQSYSTPLSFGGGTKVEIKRTVAAPSVFIFPPSDEQLKSGTASVVCLLNNFYPREAKVQWKVDNALQSGNSQESVTEQDSKDSTYSLSSTLTLSKADYEKHKVYACEVTHQGLSSPVTKSFNRGEC
As a reminder, the Kd is a measure of binding affinity in units of concentration. The koff is the first-order rate constant of dissociation. The low end stands for slow dissociation, the high end for fast dissociation. As a reminder, the kon is a measure of how fast the partners come together. Higher therefore signals fast association. Consider B2, for which the figures for the binding result in assay [9] and in [14] were “no binding (tested: ~67 nM)” and “no binding (tested: antigen starting at 200 nM)”, respectively. In addition, the EC50 in [10] is 0.179 nM; in [11], 0.106 nM; in assay [12] it was 0.27 nM; in [13], 0.2 nM; in assay [20], 86.7 nM; in [22], around 38.6 nM. Also, the Kd in assay [15] worked out at 26.8 nM; in assay [16] it was 651 nM; in assay [18], 0.824 nM; in assay [19], 2.81 nM. The 50% inhibitory concentration (IC50) is 0.573 nM in assay [17] and 0.264 nM in assay [21]. The off-rate (koff) in [18] was found to be 0.00105 s⁻¹; in [19] it was 0.002 s⁻¹. Besides, the kon in [18] was 1.28e+06 M⁻¹ s⁻¹; in assay [19], 713000 M⁻¹ s⁻¹.

B3: E1F1B1C3-CDRV1-IgG1 (antibody)
heavy: not shown
light: B2 light
In the case of B3, the binding result in [9] is “no binding (tested: ~67 nM)”; in assay [14] it was “no binding (tested: antigen starting at 200 nM)”. The concentration giving a half-maximal response (EC50) in assay [10] was 0.148 nM; in assay [11], 0.129 nM; in [12], 0.27 nM; in assay [13], 0.248 nM; in assay [20], around 2930 nM; in assay [24], around 954 nM. The Kd in assay [23] was determined as 56.7 nM; in [18] it was 0.344 nM; in assay [19] it was 1.17 nM. Also, the values for the 50% inhibitory concentration (IC50) in assay [17] and in [21] were 0.488 nM and 0.27 nM, respectively. Besides, the koff in assay [18] was determined as 0.000402 s⁻¹; in assay [19], 0.000907 s⁻¹. The kon came to 1.17e+06 M⁻¹ s⁻¹ in assay [18] and 773000 M⁻¹ s⁻¹ in [19].
